Starred links: 1 amine or outer side, 2 acyl side, 3 side chain; linkers in the order of their positions; H or OH if unused. Non-standard residues stand in square brackets, D forms with d. Groups on a side chain read outwards from the residue. No end group written: not given here. *: point of attachment. C20 diacid = O=C(O)CCCCCCCCCCCCCCCCCCC(=O)*; αMePhe(2-F) = C[C@](N)(Cc1ccccc1F)C(=O)O; γGlu = O=C(O)[C@H](CCC(=O)[*:2])N[*:1]; 4Pal = N[C@@H](Cc1ccncc1)C(=O)O; αMeL = CC(C)C[C@](C)(N)C(=O)O; AEEA = NCCOCCOCC(=O)O; Aib = CC(C)(N)C(=O)O
T1: human glucose-dependent insulinotropic polypeptide (GIP) receptor (human, UniProt P48546 22-466)
T1 construct: whole, on cells; Assayed as crude membranes of stably transfected CHO cells; also called hGIPR; human GIP receptor
T1 sequence (looked up): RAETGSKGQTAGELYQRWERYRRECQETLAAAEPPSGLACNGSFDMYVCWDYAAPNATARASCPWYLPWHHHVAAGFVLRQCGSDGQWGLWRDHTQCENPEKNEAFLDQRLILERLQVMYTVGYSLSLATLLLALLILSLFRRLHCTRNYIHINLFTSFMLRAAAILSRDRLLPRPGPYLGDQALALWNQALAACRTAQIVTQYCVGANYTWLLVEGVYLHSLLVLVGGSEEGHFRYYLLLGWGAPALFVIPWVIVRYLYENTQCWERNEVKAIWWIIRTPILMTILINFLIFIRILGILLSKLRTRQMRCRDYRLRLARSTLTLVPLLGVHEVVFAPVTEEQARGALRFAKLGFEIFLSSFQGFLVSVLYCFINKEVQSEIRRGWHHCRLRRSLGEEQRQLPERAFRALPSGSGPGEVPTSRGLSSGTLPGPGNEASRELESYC

B1: Example 51 (peptide)
peptide: Y[Aib]EGT[αMePhe(2-F)]ISDYSI[αMeL]LDKK([AEEA-AEEA-γGlu-C20 diacid])HQ[Aib]DFVE[4Pal]LLAGGPSSGAPPPS-NH2
modifications: N-terminus assumed
SMILES: CC[C@H](C)[C@H](NC(=O)[C@H](CO)NC(=O)[C@H](Cc1ccc(O)cc1)NC(=O)[C@H](CC(=O)O)NC(=O)[C@H](CO)NC(=O)[C@@H](NC(=O)[C@](C)(Cc1ccccc1F)NC(=O)[C@@H](NC(=O)CNC(=O)[C@H](CCC(=O)O)NC(=O)C(C)(C)NC(=O)[C@@H](N)Cc1ccc(O)cc1)[C@@H](C)O)[C@@H](C)CC)C(=O)N[C@@](C)(CC(C)C)C(=O)N[C@@H](CC(C)C)C(=O)N[C@@H](CC(=O)O)C(=O)N[C@@H](CCCCN)C(=O)N[C@@H](CCCCNC(=O)COCCOCCNC(=O)COCCOCCNC(=O)CC[C@H](NC(=O)CCCCCCCCCCCCCCCCCCC(=O)O)C(=O)O)C(=O)N[C@@H](Cc1c[nH]cn1)C(=O)N[C@@H](CCC(N)=O)C(=O)NC(C)(C)C(=O)N[C@@H](CC(=O)O)C(=O)N[C@@H](Cc1ccccc1)C(=O)N[C@H](C(=O)N[C@@H](CCC(=O)O)C(=O)N[C@@H](Cc1ccncc1)C(=O)N[C@@H](CC(C)C)C(=O)N[C@@H](CC(C)C)C(=O)N[C@@H](C)C(=O)NCC(=O)NCC(=O)N1CCC[C@H]1C(=O)N[C@@H](CO)C(=O)N[C@@H](CO)C(=O)NCC(=O)N[C@@H](C)C(=O)N1CCC[C@H]1C(=O)N1CCC[C@H]1C(=O)N1CCC[C@H]1C(=O)N[C@@H](CO)C(N)=O)C(C)C
B2: Example 69 (peptide)
peptide: Y[Aib]EGTFISDYSI[αMeL]LDKK([AEEA-AEEA-γGlu-C20 diacid])HQ[Aib]DFVEYLLEGGPSSGAPPPS-NH2
modifications: N-terminus assumed
SMILES: CC[C@H](C)[C@H](NC(=O)[C@H](Cc1ccccc1)NC(=O)[C@@H](NC(=O)CNC(=O)[C@H](CCC(=O)O)NC(=O)C(C)(C)NC(=O)[C@@H](N)Cc1ccc(O)cc1)[C@@H](C)O)C(=O)N[C@@H](CO)C(=O)N[C@@H](CC(=O)O)C(=O)N[C@@H](Cc1ccc(O)cc1)C(=O)N[C@@H](CO)C(=O)N[C@H](C(=O)N[C@@](C)(CC(C)C)C(=O)N[C@@H](CC(C)C)C(=O)N[C@@H](CC(=O)O)C(=O)N[C@@H](CCCCN)C(=O)N[C@@H](CCCCNC(=O)COCCOCCNC(=O)COCCOCCNC(=O)CC[C@H](NC(=O)CCCCCCCCCCCCCCCCCCC(=O)O)C(=O)O)C(=O)N[C@@H](Cc1c[nH]cn1)C(=O)N[C@@H](CCC(N)=O)C(=O)NC(C)(C)C(=O)N[C@@H](CC(=O)O)C(=O)N[C@@H](Cc1ccccc1)C(=O)N[C@H](C(=O)N[C@@H](CCC(=O)O)C(=O)N[C@@H](Cc1ccc(O)cc1)C(=O)N[C@@H](CC(C)C)C(=O)N[C@@H](CC(C)C)C(=O)N[C@@H](CCC(=O)O)C(=O)NCC(=O)NCC(=O)N1CCC[C@H]1C(=O)N[C@@H](CO)C(=O)N[C@@H](CO)C(=O)NCC(=O)N[C@@H](C)C(=O)N1CCC[C@H]1C(=O)N1CCC[C@H]1C(=O)N1CCC[C@H]1C(=O)N[C@@H](CO)C(N)=O)C(C)C)[C@@H](C)CC

Legend:
[1] = target: T2, human GLP-1 receptor (human, UniProt P43220 24-463); assay: SPA, displacement of [125I]-GLP-1 from hGLP-1R membranes, 0.1% bacitracin
T2 construct: whole, on cells; Assayed as crude membranes of stably transfected HEK293 cells; also called hGLP1R; hGLP-1R
How it was run: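 Binding buffer: 25 mM HEPES pH 7.4, 2.5 mM CaCl₂, 1 mM MgCl₂, 0.1% bacitracin, 0.003% Tween-20, protease inhibitors without EDTA. Four-parameter nonlinear regression; Kᵢ given as geometric mean ± SEM, n = independent replicates run on different days.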

[2] = target: T1, human glucose-dependent insulinotropic …; assay: SPA, displacement of [125I]-GIP from hGIPR membranes, 0.1% bacitracin
[3] = target: T3, human glucagon receptor (human, UniProt P47871 26-477); assay: SPA, displacement of [125I]-Gcg from hGcgR membranes, 0.1% bacitracin
T3 construct: whole, on cells; Assayed as crude membranes of stably transfected HEK293 cells; also called hGcgR; GcgR
How it was run: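 Binding buffer: 25 mM HEPES pH 7.4, 2.5 mM CaCl₂, 1 mM MgCl₂, 0.003% Tween-20, protease inhibitors without EDTA. Counted by scintillation after 12 h incubation/settling at room temperature. Four-parameter nonlinear fit; Kᵢ given as geometric mean ± SEM of independent replicates run on different days.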

T3 sequence (P47871 26-477): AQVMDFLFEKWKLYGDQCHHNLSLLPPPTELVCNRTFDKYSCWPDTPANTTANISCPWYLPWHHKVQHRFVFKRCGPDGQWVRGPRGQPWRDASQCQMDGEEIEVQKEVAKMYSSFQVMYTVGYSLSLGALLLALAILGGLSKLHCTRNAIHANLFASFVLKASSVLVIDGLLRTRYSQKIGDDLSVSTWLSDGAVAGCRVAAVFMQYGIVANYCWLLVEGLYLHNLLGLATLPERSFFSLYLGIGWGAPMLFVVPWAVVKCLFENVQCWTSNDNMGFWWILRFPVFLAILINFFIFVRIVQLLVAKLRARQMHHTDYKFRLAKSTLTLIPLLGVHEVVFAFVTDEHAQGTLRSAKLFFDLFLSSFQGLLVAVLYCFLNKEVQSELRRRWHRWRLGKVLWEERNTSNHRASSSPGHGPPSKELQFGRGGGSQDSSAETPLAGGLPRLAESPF

Row | Binder | Ki [1] [nM] | Ki [2] [nM] | Ki [3] [nM]
1 | B1 | 54.1 | 0.0386 | 26.7
2 | B2 | 144 | 0.0406 | 114

— patent publication US20210032299A1 (Eli Lilly, published 2021)
